Results from article doi:10.1101/2025.06.17.660173, “Twinfilin is a potent uncapper of actin capping protein and modulates actomyosin contractility in the C. elegans spermatheca” (bioRxiv, 2025).

Biological target: T1, biotinylated SNAP tagged C. elegans heterodimeric capping protein (CAP-1/CAP-2) (C. elegans, UniProt P34685 1-282; P34686 1-270, biotin on the SNAP tag (benzylguanine-biotin); the subunit that carries it is not stated | biotin on the SNAP tag (benzylguanine-biotin); the subunit that carries it is not stated)
T1 construct: CAP-1, a capping protein subunit of C. elegans; CAP-2, a capping protein subunit of C. elegans; The complex was anchored to streptavidin-coated coverslips by the biotin; also called SNAP-CP; CP; source: E. coli BL21 DE3, purified (HisTrap, Superose 6), labelled with benzylguanine-biotin; not shown: His tag (from the HisTrap purification)
T1 sequence (looked up) 1: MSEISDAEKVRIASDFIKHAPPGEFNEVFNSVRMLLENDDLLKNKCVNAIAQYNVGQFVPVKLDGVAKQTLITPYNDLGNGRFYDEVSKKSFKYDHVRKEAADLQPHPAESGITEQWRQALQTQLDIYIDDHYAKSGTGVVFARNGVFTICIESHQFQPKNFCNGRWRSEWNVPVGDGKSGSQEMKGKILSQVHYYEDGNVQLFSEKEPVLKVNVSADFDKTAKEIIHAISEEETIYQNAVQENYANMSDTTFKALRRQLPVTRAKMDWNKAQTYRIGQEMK
T1 sequence (looked up) 2: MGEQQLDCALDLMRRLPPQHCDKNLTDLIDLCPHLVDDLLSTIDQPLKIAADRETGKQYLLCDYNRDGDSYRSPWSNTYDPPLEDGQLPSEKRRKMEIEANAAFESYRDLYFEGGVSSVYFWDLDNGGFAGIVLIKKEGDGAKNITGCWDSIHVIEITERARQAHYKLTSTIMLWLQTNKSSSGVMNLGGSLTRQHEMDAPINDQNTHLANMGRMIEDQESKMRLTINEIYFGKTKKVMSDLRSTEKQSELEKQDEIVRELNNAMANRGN
Experiment: mf-TIRF microscopy uncapping assay; biotinylated SNAP-CP anchored to the coverslip; preformed Alexa-488-labelled (15%) ADP-actin filaments captured; filament detachment followed with and without TWF-2 in TIRF buffer (10 mM imidazole pH 7.4, 50 mM KCl, 1 mM MgCl2, 1 mM EGTA, 0.2 mM ATP, 10 mM DTT); survival fitted to a single exponential
Settings: both partners purified

B1: C. elegans TWF-2 (6×His-tagged), recombinant (natural protein, UniProt Q20173 1-333, looked up)
chain: MACQTGIRANAALRNALNLGKQAKLRLIKIVVNNEEMTPNYEFAGTANWRDDWRACLPDCVDAYEPCFILFRLNTITEWVLITFVDDRAPVREKMLLAATCATFKSEFGQCYIEHEKHVTDLKDLTLNAFEAWLKAKTELGPMSEVERELHNAQQERAAIAHAGPQHMKGVAFPVDRNAEEALRQLASQKLSFVQLSVDTLNEAIKLEGTLESLEPSQLASKVPRDKPRYTFYNFDHTWEGVPQQCTLFIYSLPSSGSSIKERMLYSSCKGPFLSAAQNQYGVVITNKMEVDARDDLSEKALLEVIHPLPVEAPKQFSRPAPPRAGPRRITKV
notes: TWF-2, the sole twinfilin ortholog of C. elegans; also called twinfilin; C. elegans twinfilin; source: E. coli BL21 (pRare), purified (Ni-NTA, Superdex 75 Increase)
  fold acceleration of uncapping of CP from actin filaments: > 90 fold
